The text below walks through data of paper PMC7766085.

The target in test [1] is MasR, endogenous in mouse lung (mouse (endogenous in CD-1 mouse lung)) (UniProt P30554). Kind of test: proximity ligation; in situ PLA on fixed 30 µm lung sections of adult CD-1 mice; primary antibodies to the receptor and to ACE2, Duolink II probes anti-rabbit plus and anti-mouse minus; confocal microscopy.
Test [2] deals with AT1R, endogenous in mouse lung (mouse (endogenous in CD-1 mouse lung)) (UniProt P29754). Described as above.
Sequence of UniProt P29754 (P29754 whole entry): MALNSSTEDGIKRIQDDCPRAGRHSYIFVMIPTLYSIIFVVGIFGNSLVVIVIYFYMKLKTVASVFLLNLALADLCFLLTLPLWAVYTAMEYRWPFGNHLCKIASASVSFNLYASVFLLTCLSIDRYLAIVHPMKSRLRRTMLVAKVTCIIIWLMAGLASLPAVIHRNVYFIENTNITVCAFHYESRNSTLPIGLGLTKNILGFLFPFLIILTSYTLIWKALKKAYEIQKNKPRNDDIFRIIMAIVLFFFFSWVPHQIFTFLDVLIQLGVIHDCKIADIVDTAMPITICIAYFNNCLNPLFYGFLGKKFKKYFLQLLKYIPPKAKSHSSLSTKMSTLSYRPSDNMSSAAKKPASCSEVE
In test [3] the target is MasR, endogenous in mouse lung (mouse (endogenous in CD-1 mouse lung)) (UniProt P30554). The experiment in a line: proximity ligation; in situ PLA on fixed 30 µm lung sections of 19-day fetal CD-1 mice; primary antibodies to the receptor and to ACE2, Duolink II probes anti-rabbit plus and anti-mouse minus; confocal microscopy.
Test [4] has as its target AT1R, endogenous in mouse lung (mouse (endogenous in CD-1 mouse lung)) (UniProt P29754). The test is described as above.
Test [5] concerns the target AT2R, endogenous in mouse lung (mouse (endogenous in CD-1 mouse lung)) (UniProt P35374). The experiment in a line: proximity ligation; in situ PLA on fixed 30 µm lung sections of adult CD-1 mice; primary antibodies to the receptor and to ACE2, Duolink II probes anti-rabbit plus and anti-mouse minus; confocal microscopy.
Sequence of UniProt P35374 (P35374 whole entry): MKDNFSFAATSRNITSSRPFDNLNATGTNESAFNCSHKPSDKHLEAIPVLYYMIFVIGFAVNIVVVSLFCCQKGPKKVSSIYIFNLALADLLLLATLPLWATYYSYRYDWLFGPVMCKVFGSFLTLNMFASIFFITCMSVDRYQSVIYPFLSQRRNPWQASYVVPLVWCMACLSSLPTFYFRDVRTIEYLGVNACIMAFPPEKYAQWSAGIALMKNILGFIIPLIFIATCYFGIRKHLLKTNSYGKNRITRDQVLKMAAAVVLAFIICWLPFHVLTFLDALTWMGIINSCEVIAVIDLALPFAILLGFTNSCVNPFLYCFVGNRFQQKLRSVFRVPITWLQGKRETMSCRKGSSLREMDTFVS
Test [6] shares this target. The experiment in a line: proximity ligation; in situ PLA on fixed 30 µm lung sections of 19-day fetal CD-1 mice; primary antibodies to the receptor and to ACE2, Duolink II probes anti-rabbit plus and anti-mouse minus; confocal microscopy.

Sequence of UniProt P30554 (P30554 whole entry): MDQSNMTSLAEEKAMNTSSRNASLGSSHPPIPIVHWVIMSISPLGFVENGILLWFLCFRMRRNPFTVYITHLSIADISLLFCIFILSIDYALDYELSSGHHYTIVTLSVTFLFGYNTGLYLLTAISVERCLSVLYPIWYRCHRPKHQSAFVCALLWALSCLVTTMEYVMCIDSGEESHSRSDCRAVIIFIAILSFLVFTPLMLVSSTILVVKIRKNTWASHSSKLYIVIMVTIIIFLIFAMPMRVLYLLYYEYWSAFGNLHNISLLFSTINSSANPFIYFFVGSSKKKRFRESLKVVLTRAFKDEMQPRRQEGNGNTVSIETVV

With “ACE2, endogenous in mouse lung (from UniProt Q8R0I0 18-805) (enzyme)”, the percent of cells with PLA signal in test [1] is 8 % of cells; in test [2] it was 14 % of cells; in test [3] it was < 1 % of cells; in test [4], < 1 % of cells. For the same substance, the red dots per dot-containing cell (red dots/cell-expressing dots) in test [1] came out at 7; in test [2], 10.
Consider “ACE2, endogenous in mouse lung (from UniProt Q8R0I0 18-805) (proximity to ACE2)”, for which, in test [5], the percent of cells with PLA signal was 11 % of cells and the red dots per dot-containing cell (red dots/cell-expressing dots) is 6. Besides, in test [6], the percent of cells with PLA signal was < 1 % of cells.
